From article PMC7332966 (2020)

Target: FANCD2 (from His6-3C-FANCD2, His6-tag cleaved by 3C protease) (human, UniProt Q9BXW9 1-1451)
Sequence (Q9BXW9 whole entry): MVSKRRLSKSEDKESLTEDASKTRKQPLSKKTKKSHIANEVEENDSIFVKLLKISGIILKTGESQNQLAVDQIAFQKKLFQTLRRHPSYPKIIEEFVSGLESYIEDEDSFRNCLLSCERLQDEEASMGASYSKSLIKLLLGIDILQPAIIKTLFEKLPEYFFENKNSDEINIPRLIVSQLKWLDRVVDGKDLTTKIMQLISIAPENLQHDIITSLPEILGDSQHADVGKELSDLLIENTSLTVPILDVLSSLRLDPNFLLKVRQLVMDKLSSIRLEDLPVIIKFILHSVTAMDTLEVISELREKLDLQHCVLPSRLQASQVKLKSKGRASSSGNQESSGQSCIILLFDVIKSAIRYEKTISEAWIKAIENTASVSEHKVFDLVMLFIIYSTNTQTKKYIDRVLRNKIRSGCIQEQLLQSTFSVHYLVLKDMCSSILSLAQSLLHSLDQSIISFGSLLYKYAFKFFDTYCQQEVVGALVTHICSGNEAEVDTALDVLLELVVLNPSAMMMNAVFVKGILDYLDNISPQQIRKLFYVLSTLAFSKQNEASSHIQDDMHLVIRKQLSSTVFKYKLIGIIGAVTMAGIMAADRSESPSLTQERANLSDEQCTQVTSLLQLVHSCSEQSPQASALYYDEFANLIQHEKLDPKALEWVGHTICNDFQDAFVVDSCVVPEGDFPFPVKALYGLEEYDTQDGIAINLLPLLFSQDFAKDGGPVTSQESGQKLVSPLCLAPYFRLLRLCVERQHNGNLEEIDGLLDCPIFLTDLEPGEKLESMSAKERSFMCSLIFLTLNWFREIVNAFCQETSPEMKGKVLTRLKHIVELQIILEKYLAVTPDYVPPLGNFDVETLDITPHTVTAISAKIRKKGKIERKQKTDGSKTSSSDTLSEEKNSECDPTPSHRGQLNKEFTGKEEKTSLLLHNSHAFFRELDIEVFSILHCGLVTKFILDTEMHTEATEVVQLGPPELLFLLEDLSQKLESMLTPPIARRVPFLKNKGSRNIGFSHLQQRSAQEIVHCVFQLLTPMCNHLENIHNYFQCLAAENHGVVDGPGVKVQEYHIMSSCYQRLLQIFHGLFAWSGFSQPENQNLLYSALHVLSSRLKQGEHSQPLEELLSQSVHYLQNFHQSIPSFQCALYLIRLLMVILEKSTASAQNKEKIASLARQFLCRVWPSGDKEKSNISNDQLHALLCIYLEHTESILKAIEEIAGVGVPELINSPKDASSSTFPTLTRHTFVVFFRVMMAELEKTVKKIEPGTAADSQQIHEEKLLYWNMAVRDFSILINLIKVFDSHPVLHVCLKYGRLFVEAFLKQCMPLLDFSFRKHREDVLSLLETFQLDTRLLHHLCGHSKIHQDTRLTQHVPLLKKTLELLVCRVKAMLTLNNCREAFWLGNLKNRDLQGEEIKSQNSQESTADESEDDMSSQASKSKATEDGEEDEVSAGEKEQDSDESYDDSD

Kd: 11 nM
B1: His6-FANCI (wild type) (natural protein)
chain: MDQKILSLAAEKTADKLQEFLQTLREGDLTNLLQNQAVKGKVAGALLRAIFKGSPCSEEAGTLRRRKIYTCCIQLVESGDLQKEIASEIIGLLMLEAHHFPGPLLVELANEFISAVREGSLVNGKSLELLPIILTALATKKENLAYGKGVLSGEECKKQLINTLCSGRWDQQYVIQLTSMFKDVPLTAEEVEFVVEKALSMFSKMNLQEIPPLVYQLLVLSSKGSRKSVLEGIIAFFSALDKQHNEEQSGDELLDVVTVPSGELRHVEGTIILHIVFAIKLDYELGRELVKHLKVGQQGDSNNNLSPFSIALLLSVTRIQRFQDQVLDLLKTSVVKSFKDLQLLQGSKFLQNLVPHRSYVSTMILEVVKNSVHSWDHVTQGLVELGFILMDSYGPKKVLDGKTIETSPSLSRMPNQHACKLGANILLETFKIHEMIRQEILEQVLNRVVTRASSPISHFLDLLSNIVMYAPLVLQSCSSKVTEAFDYLSFLPLQTVQRLLKAVQPLLKVSMSMRDCLILVLRKAMFANQLDARKSAVAGFLLLLKNFKVLGSLSSSQCSQSLSVSQVHVDVHSHYNSVANETFCLEIMDSLRRCLSQQADVRLMLYEGFYDVLRRNSQLANSVMQTLLSQLKQFYEPKPDLLPPLKLEACILTQGDKISLQEPLDYLLCCIQHCLAWYKNTVIPLQQGEEEEEEEEAFYEDLDDILESITNRMIKSELEDFELDKSADFSQSTSIGIKNNICAFLVMGVCEVLIEYNFSISSFSKNRFEDILSLFMCYKKLSDILNEKAGKAKTKMANKTSDSLLSMKFVSSLLTALFRDSIQSHQESLSVLRSSNEFMRYAVNVALQKVQQLKETGHVSGPDGQNPEKIFQNLCDITRVLLWRYTSIPTSVEESGKKEKGKSISLLCLEGLQKIFSAVQQFYQPKIQQFLRALDVTDKEGEEREDADVSVTQRTAFQIRQFQRSLLNLLSSQEEDFNSKEALLLVTVLTSLSKLLEPSSPQFVQMLSWTSKICKENSREDALFCKSLMNLLFSLHVSYKSPVILLRDLSQDIHGHLGDIDQDVEVEKTNHFAIVNLRTAAPTVCLLVLSQAEKVLEEVDWLITKLKGQVSQETLSEEASSQATLPNQPVEKAIIMQLGTLLTFFHELVQTALPSGSCVDTLLKDLCKMYTTLTALVRYYLQVCQSSGGIPKNMEKLVKLSGSHLTPLCYSFISYVQNKSKSLNYTGEKKEKPAAVATAMARVLRETKPIPNLIFAIEQYEKFLIHLSKKSKVNLMQHMKLSTSRDFKIKGNILDMVLREDGEDENEEGTASEHGGQNKEPAKKKRKK
modifications: RED-tris-NTA dye (NanoTemper) on the His6 tag
